Data: publication PMC4580526 (Journal of bone and mineral research : the official journal …, 2015)
Where a chain is given by its changes, count along the chain named.

B1: [Cys25]PTH(1-84): mutant hormone with arginine-to-cysteine mutation at position 25 of mature PTH(1-84) (protein, UniProt P01270 32-115, looked up, variant R25C)
Parathyroid hormone: SVSEIQLMHNLGKHLNSMERVEWLCKKLQDVHNFVALGAPLAPRDAGSQRPRKKEDNVLVESHEKSLGEADKADVNVLTKAKSQ
modifications: Parathyroid hormone
B2: PTH(1-84): wild-type hormone expressed from plasmid encoding wild-type preproPTH in COS-7 cells (protein, UniProt P01270 32-115, looked up)
Parathyroid hormone: B1 Parathyroid hormone with C25R
modifications: Parathyroid hormone

Tests used:
[1] = target: PTH receptor type-1 (PTH1R), wild-type human (human) (UniProt Q03431)
UniProt Q03431, sequence (Q03431 27-593): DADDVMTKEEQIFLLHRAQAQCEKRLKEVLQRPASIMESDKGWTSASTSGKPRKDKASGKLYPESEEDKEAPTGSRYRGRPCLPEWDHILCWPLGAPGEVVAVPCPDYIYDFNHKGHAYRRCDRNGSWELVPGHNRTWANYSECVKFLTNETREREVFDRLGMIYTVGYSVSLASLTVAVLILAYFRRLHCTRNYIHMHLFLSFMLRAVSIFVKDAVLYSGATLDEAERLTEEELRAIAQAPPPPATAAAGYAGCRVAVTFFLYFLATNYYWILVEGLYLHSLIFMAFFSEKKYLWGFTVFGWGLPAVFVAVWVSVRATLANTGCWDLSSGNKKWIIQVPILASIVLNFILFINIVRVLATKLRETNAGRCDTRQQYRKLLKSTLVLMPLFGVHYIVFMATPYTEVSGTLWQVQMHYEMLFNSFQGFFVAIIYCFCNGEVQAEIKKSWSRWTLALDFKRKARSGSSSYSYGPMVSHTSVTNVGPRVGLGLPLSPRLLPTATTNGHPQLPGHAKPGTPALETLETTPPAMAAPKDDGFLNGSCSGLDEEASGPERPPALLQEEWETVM

[2] = target: PTH receptor type-1 (PTH1R), wild-type human (human) (UniProt Q03431); test: radioligand binding
[3] = system: COS-7 cells; test: Secretion of PTH into conditioned medium of transfected COS-7 cells; type: cell-based; conditions: for PTH level in conditioned medium, PTH(1-84) assay / PTH level in conditioned medium, ntPTH assay: 48 hours after transfection, mean ± SEM

Molecule | PLC/IP signaling EC50, IP1 in GP-2.3 cells (Cisbio IP1 assay kit) [1] [nM] | cAMP signaling EC50, Glosensor luminescence in SGS-72 cells (SaOS-2-derived) [1] [nM] | IC50 [2] [nM] | PTH level in conditioned medium, PTH(1-84) assay [3] [pg/mL] | PTH level in conditioned medium, ntPTH assay [3] [pg/mL] | secretion of mutant hormone into the medium ([3]; transfected COS-7 cells)
[Cys25]PTH(1-34) (peptide) | 265 | 0.27 | 12.3 | – | – | –
B1 | – | – | – | 1812 ± 175 | 30.9 ± 23 | efficiently secreted into the medium
B2 | – | – | – | 1812 ± 94 | 2285 ± 277 | –
